Source: patent US20100129369A1
Each block holds one substance with its values, some of them ahead of it.

What was measured:
human c-Met (human) = human c-Met (human) (UniProt P08581); assay: cell-based or functional assay
[1] = molecular target: human c-Met ECD-Fc-Flis (human); assay: HGF-blocking ELISA: HGF signal on coated c-Met ECD-Fc-Flis; Ab 125000.00 ng/mL
[2] = molecular target: human c-Met ECD-Fc-Flis (human); assay: HGF-blocking ELISA: HGF signal on coated c-Met ECD-Fc-Flis; Ab 7.63 ng/mL
[3] = molecular target: human c-Met ECD-Fc-Flis (human); assay: HGF-blocking ELISA: HGF signal on coated c-Met ECD-Fc-Flis; Ab 1.91 ng/mL
[4] = molecular target: human c-Met ECD-Fc-Flis (human); assay: HGF-blocking ELISA: HGF signal on coated c-Met ECD-Fc-Flis; Ab 30.52 ng/mL
[5] = molecular target: human c-Met ECD-Fc-Flis (human); assay: HGF-blocking ELISA: HGF signal on coated c-Met ECD-Fc-Flis; Ab 7812.50 ng/mL
[6] = molecular target: human c-Met ECD-Fc-Flis (human); assay: HGF-blocking ELISA: HGF signal on coated c-Met ECD-Fc-Flis; Ab 0.00 ng/mL (HGF only)
[7] = molecular target: human c-Met ECD-Fc-Flis (human); assay: HGF-blocking ELISA: HGF signal on coated c-Met ECD-Fc-Flis; Ab 0.48 ng/mL
[8] = molecular target: human c-Met ECD-Fc-Flis (human); assay: HGF-blocking ELISA: HGF signal on coated c-Met ECD-Fc-Flis; Ab 1953.13 ng/mL
[9] = molecular target: human c-Met ECD-Fc-Flis (human); assay: HGF-blocking ELISA: HGF signal on coated c-Met ECD-Fc-Flis; Ab 122.07 ng/mL
[10] = molecular target: human c-Met ECD-Fc-Flis (human); assay: HGF-blocking ELISA: HGF signal on coated c-Met ECD-Fc-Flis; Ab 31250.00 ng/mL
[11] = molecular target: human c-Met ECD-Fc-Flis (human); assay: HGF-blocking ELISA: HGF signal on coated c-Met ECD-Fc-Flis; Ab 488.28 ng/mL

human c-Met (human), sequence (P08581 25-1390): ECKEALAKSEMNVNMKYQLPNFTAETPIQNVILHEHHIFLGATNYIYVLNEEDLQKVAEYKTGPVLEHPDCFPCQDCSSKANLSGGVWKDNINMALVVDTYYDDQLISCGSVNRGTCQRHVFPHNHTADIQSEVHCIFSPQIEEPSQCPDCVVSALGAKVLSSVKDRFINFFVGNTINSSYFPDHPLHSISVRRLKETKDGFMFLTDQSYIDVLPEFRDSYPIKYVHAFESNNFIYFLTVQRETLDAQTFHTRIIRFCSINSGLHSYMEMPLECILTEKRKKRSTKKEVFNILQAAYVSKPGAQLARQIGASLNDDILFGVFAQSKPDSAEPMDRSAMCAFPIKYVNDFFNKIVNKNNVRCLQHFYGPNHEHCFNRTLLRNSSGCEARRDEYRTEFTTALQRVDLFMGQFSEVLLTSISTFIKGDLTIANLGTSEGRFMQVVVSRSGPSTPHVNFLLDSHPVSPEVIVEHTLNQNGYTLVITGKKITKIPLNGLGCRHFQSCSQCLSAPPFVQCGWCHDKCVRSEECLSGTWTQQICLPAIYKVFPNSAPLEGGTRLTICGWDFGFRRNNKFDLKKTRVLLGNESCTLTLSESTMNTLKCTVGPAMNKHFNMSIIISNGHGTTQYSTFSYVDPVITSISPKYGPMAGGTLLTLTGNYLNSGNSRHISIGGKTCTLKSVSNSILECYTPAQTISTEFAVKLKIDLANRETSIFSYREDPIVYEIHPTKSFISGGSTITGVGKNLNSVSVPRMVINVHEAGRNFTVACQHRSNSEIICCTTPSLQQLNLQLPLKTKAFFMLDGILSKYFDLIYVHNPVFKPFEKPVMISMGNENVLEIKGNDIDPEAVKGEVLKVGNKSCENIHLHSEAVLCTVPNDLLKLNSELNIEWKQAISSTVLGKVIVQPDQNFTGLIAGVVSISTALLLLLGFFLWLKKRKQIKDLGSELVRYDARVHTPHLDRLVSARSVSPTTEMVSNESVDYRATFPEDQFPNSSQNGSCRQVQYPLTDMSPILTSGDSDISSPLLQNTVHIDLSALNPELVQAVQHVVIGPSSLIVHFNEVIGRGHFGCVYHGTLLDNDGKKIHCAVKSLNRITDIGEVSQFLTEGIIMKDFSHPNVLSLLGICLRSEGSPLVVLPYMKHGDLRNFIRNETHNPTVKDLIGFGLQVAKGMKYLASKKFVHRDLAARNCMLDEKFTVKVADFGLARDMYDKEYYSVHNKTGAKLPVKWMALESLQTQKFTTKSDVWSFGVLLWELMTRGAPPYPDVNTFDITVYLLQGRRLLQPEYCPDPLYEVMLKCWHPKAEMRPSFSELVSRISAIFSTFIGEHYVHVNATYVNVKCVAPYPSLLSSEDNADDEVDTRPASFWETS
human c-Met ECD-Fc-Flis (human), sequence (chain, as listed by the source): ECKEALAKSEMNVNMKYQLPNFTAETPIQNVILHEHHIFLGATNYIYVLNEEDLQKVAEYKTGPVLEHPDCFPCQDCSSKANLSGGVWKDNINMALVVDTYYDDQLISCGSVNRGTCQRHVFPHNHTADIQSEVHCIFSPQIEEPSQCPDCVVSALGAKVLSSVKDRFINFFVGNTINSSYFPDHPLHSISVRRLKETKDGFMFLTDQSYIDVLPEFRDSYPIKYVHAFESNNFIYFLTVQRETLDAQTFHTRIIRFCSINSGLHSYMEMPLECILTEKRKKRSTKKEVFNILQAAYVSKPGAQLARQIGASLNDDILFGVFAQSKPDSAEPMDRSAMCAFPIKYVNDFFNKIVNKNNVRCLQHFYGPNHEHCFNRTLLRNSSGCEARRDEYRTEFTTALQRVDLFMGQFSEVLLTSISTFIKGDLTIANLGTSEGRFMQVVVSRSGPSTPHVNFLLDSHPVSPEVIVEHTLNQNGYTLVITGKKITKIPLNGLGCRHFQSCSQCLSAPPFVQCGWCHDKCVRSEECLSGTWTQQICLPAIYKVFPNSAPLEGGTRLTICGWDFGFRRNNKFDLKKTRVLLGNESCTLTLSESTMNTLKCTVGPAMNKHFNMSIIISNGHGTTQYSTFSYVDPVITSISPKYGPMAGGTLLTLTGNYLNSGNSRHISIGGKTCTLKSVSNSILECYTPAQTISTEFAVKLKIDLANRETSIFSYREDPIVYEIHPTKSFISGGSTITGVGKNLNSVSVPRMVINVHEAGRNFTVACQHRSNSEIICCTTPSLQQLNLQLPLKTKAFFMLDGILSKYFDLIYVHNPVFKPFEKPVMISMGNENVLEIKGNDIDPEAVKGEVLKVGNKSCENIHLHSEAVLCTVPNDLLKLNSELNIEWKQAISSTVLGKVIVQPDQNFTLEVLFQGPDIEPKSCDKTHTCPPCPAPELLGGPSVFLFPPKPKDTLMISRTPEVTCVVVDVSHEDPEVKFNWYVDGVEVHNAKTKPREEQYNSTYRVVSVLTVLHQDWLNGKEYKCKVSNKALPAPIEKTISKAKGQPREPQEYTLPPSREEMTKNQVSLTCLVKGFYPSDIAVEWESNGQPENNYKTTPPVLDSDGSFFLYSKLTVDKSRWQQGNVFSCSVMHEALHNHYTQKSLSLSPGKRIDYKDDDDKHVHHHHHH

- 3H-Thymidine Incorporation in Caki-1 Cells in the Absence of HGF (AVG CPM), antibody dose 0.1 ng/mL (human c-Met (human)): 14400 CPM
- 3H-Thymidine Incorporation in Caki-1 Cells in the Absence of HGF (AVG CPM), antibody dose 0.4 ng/mL (human c-Met (human)): 12900 CPM
- 3H-Thymidine Incorporation in Caki-1 Cells in the Absence of HGF (AVG CPM), antibody dose 2.6 ng/mL (human c-Met (human)): 12500 CPM
- 3H-Thymidine Incorporation in Caki-1 Cells in the Absence of HGF (AVG CPM), antibody dose 15.4 ng/mL (human c-Met (human)): 11700 CPM
- 3H-Thymidine Incorporation in Caki-1 Cells in the Absence of HGF (AVG CPM), antibody dose 92.6 ng/mL (human c-Met (human)): 15600 CPM
- 3H-Thymidine Incorporation in Caki-1 Cells in the Absence of HGF (AVG CPM), antibody dose 555.6 ng/mL (human c-Met (human)): 20000 CPM
- 3H-Thymidine Incorporation in Caki-1 Cells in the Absence of HGF (AVG CPM), antibody dose 3333.3 ng/mL (human c-Met (human)): 19000 CPM
- 3H-Thymidine Incorporation in Caki-1 Cells in the Absence of HGF (AVG CPM), antibody dose 20000.0 ng/mL (human c-Met (human)): 19900 CPM
- 3H-Thymidine Incorporation in Primary Human Hepatocytes in the Absence of HGF (average), dose 0.0032 ug/mL (human c-Met (human)): 822
- 3H-Thymidine Incorporation in Primary Human Hepatocytes in the Absence of HGF (average), dose 0.016 ug/mL (human c-Met (human)): 1720
- 3H-Thymidine Incorporation in Primary Human Hepatocytes in the Absence of HGF (average), dose 0.08 ug/mL (human c-Met (human)): 3320
- 3H-Thymidine Incorporation in Primary Human Hepatocytes in the Absence of HGF (average), dose 0.4 ug/mL (human c-Met (human)): 3760
- 3H-Thymidine Incorporation in Primary Human Hepatocytes in the Absence of HGF (average), dose 2 ug/mL (human c-Met (human)): 4910
- 3H-Thymidine Incorporation in Primary Human Hepatocytes in the Absence of HGF (average), dose 10 ug/mL (human c-Met (human)): 4980
- % inhibition of HGF stimulated phospho-Met (ELISA, HCT116 cells), Ab 0.0032 µg/mL (human c-Met (human)): -6.07%
- % inhibition of HGF stimulated phospho-Met (ELISA, HCT116 cells), Ab 0.016 µg/mL (human c-Met (human)): -3.5%
- % inhibition of HGF stimulated phospho-Met (ELISA, HCT116 cells), Ab 0.08 µg/mL (human c-Met (human)): 11.9%
- % inhibition of HGF stimulated phospho-Met (ELISA, HCT116 cells), Ab 0.4 µg/mL (human c-Met (human)): 42.5%
- % inhibition of HGF stimulated phospho-Met (ELISA, HCT116 cells), Ab 2 µg/mL (human c-Met (human)): 63.8%
- % inhibition of HGF stimulated phospho-Met (ELISA, HCT116 cells), Ab 10 µg/mL (human c-Met (human)): 64.1%
- AVG CPM, 3H-thymidine incorporation in MKN45 cells, Ab 0.0 ng/mL (no antibody) (human c-Met (human)): 50300 CPM
- AVG CPM, 3H-thymidine incorporation in MKN45 cells, Ab 0.1 ng/mL (human c-Met (human)): 51900 CPM
- AVG CPM, 3H-thymidine incorporation in MKN45 cells, Ab 0.4 ng/mL (human c-Met (human)): 49600 CPM
- AVG CPM, 3H-thymidine incorporation in MKN45 cells, Ab 2.6 ng/mL (human c-Met (human)): 55000 CPM
- AVG CPM, 3H-thymidine incorporation in MKN45 cells, Ab 15.4 ng/mL (human c-Met (human)): 49800 CPM
- AVG CPM, 3H-thymidine incorporation in MKN45 cells, Ab 92.6 ng/mL (human c-Met (human)): 39600 CPM
- AVG CPM, 3H-thymidine incorporation in MKN45 cells, Ab 555.6 ng/mL (human c-Met (human)): 39500 CPM
- AVG CPM, 3H-thymidine incorporation in MKN45 cells, Ab 3333.3 ng/mL (human c-Met (human)): 38200 CPM
- AVG CPM, 3H-thymidine incorporation in MKN45 cells, Ab 20000.0 ng/mL (human c-Met (human)): 35100 CPM
- H441 Scratch Assay, Avg. %, antibody 10 ug/mL (human c-Met (human)): 244%
- HepG2 Cell Invasiveness, Average Cell Number Per 2.5x Field, antibody 10.00 ug/mL (cells per 2.5x field) (human c-Met (human)): 85
- Mean Fluorescence (c-Met left on the surface of MKN45 cells, FACS), Ab 5.00 ug/mL (human c-Met (human)): 92.9
- Percent of DU145 Cells in Colonies (scatter assay), antibody 20 ug/mL (human c-Met (human)): 14.4%
- Tube Formation in ECFC Cells, Total Tube Area (Avg.), antibody 10 ug/mL (human c-Met (human)): 147000
- Tubular Morphogenesis Agonist activity (fold stimulation) in HepG2 cells, antibody 50 ug/ml (fold stimulation) (human c-Met (human)): 4.9
- p-Met signal (pY1349 ELISA, A549 cells), Ab Conc. 5 (ng/mL as printed) (human c-Met (human)): 3.29
Substance: Murine IgG1 c-Met antibody 5D5

- % inhibition of HGF stimulated phospho-Met (ELISA, HCT116 cells), Ab 0.0032 µg/mL (human c-Met (human)): -9.76%
- % inhibition of HGF stimulated phospho-Met (ELISA, HCT116 cells), Ab 0.016 µg/mL (human c-Met (human)): -5.42%
- % inhibition of HGF stimulated phospho-Met (ELISA, HCT116 cells), Ab 0.08 µg/mL (human c-Met (human)): -10.6%
- % inhibition of HGF stimulated phospho-Met (ELISA, HCT116 cells), Ab 0.4 µg/mL (human c-Met (human)): 13.4%
- % inhibition of HGF stimulated phospho-Met (ELISA, HCT116 cells), Ab 2 µg/mL (human c-Met (human)): 9.76%
- % inhibition of HGF stimulated phospho-Met (ELISA, HCT116 cells), Ab 10 µg/mL (human c-Met (human)): 5.46%
- AVG CPM, 3H-thymidine incorporation in MKN45 cells, Ab 0.0 ng/mL (no antibody) (human c-Met (human)): 50300 CPM
- AVG CPM, 3H-thymidine incorporation in MKN45 cells, Ab 0.1 ng/mL (human c-Met (human)): 47700 CPM
- AVG CPM, 3H-thymidine incorporation in MKN45 cells, Ab 0.4 ng/mL (human c-Met (human)): 51500 CPM
- AVG CPM, 3H-thymidine incorporation in MKN45 cells, Ab 2.6 ng/mL (human c-Met (human)): 55500 CPM
- AVG CPM, 3H-thymidine incorporation in MKN45 cells, Ab 15.4 ng/mL (human c-Met (human)): 51300 CPM
- AVG CPM, 3H-thymidine incorporation in MKN45 cells, Ab 92.6 ng/mL (human c-Met (human)): 52200 CPM
- AVG CPM, 3H-thymidine incorporation in MKN45 cells, Ab 555.6 ng/mL (human c-Met (human)): 54700 CPM
- AVG CPM, 3H-thymidine incorporation in MKN45 cells, Ab 3333.3 ng/mL (human c-Met (human)): 53700 CPM
- AVG CPM, 3H-thymidine incorporation in MKN45 cells, Ab 20000.0 ng/mL (human c-Met (human)): 52400 CPM
- Mean Fluorescence (c-Met left on the surface of MKN45 cells, FACS), Ab 5.00 ug/mL (human c-Met (human)): 136
Substance: murine IgG isotype control antibody

- AVG A450 nm [1]: 3 A450 nm
- % inhibition of HGF stimulated phospho-Met (ELISA, HCT116 cells), Ab 0.0032 µg/mL (human c-Met (human)): -14.4%
- % inhibition of HGF stimulated phospho-Met (ELISA, HCT116 cells), Ab 0.016 µg/mL (human c-Met (human)): -7.96%
- % inhibition of HGF stimulated phospho-Met (ELISA, HCT116 cells), Ab 0.08 µg/mL (human c-Met (human)): -21.7%
- % inhibition of HGF stimulated phospho-Met (ELISA, HCT116 cells), Ab 0.4 µg/mL (human c-Met (human)): -16.1%
- % inhibition of HGF stimulated phospho-Met (ELISA, HCT116 cells), Ab 2 µg/mL (human c-Met (human)): -6.62%
- % inhibition of HGF stimulated phospho-Met (ELISA, HCT116 cells), Ab 10 µg/mL (human c-Met (human)): -1.47%
- AVG CPM, 3H-thymidine incorporation in MKN45 cells, Ab 0.0 ng/mL (no antibody) (human c-Met (human)): 48700 CPM
- AVG CPM, 3H-thymidine incorporation in MKN45 cells, Ab 0.1 ng/mL (human c-Met (human)): 53900 CPM
- AVG CPM, 3H-thymidine incorporation in MKN45 cells, Ab 0.4 ng/mL (human c-Met (human)): 55300 CPM
- AVG CPM, 3H-thymidine incorporation in MKN45 cells, Ab 2.6 ng/mL (human c-Met (human)): 54800 CPM
- AVG CPM, 3H-thymidine incorporation in MKN45 cells, Ab 15.4 ng/mL (human c-Met (human)): 53800 CPM
- AVG CPM, 3H-thymidine incorporation in MKN45 cells, Ab 92.6 ng/mL (human c-Met (human)): 54300 CPM
- AVG CPM, 3H-thymidine incorporation in MKN45 cells, Ab 555.6 ng/mL (human c-Met (human)): 54200 CPM
- AVG CPM, 3H-thymidine incorporation in MKN45 cells, Ab 3333.3 ng/mL (human c-Met (human)): 54000 CPM
- AVG CPM, 3H-thymidine incorporation in MKN45 cells, Ab 20000.0 ng/mL (human c-Met (human)): 50600 CPM
- Mean Fluorescence (c-Met left on the surface of MKN45 cells, FACS), Ab 5.00 ug/mL (human c-Met (human)): 135
- p-Met signal (pY1349 ELISA, A549 cells), Ab 0.002 µg/mL (human c-Met (human)): 0.117
- p-Met signal (pY1349 ELISA, A549 cells), Ab 0.005 µg/mL (human c-Met (human)): 0.074
- p-Met signal (pY1349 ELISA, A549 cells), Ab 0.014 µg/mL (human c-Met (human)): 0.074
- p-Met signal (pY1349 ELISA, A549 cells), Ab 0.041 µg/mL (human c-Met (human)): 0.268
- p-Met signal (pY1349 ELISA, A549 cells), Ab 0.123 µg/mL (human c-Met (human)): 0.067
- p-Met signal (pY1349 ELISA, A549 cells), Ab 0.370 µg/mL (human c-Met (human)): 0.082
- p-Met signal (pY1349 ELISA, A549 cells), Ab 1.113 µg/mL (human c-Met (human)): 0.087
- p-Met signal (pY1349 ELISA, A549 cells), Ab 3.333 µg/mL (human c-Met (human)): 0.068
- p-Met signal (pY1349 ELISA, A549 cells), Ab 10 µg/mL (human c-Met (human)): 0.077
- p-Met signal (pY1349 ELISA, A549 cells), Ab 30 µg/mL (human c-Met (human)): 0.061
- AVG A450 nm [2]: 2.88 A450 nm
- AVG A450 nm [3]: 2.49 A450 nm
- AVG A450 nm [4]: 2.63 A450 nm
- AVG A450 nm [5]: 2.49 A450 nm
- AVG A450 nm [6]: 2.61 A450 nm
- AVG A450 nm [7]: 2.41 A450 nm
- AVG A450 nm [8]: 2.27 A450 nm
- AVG A450 nm [9]: 2.44 A450 nm
- AVG A450 nm [10]: 2.67 A450 nm
- AVG A450 nm [11]: 2.44 A450 nm
Substance: humanized IgG4 isotype control antibody
